Measured values: publication PMC6737007

Experiments:
[1] = target: second voltage-sensing domain (VSD-II) of the human NaV1.4 channel, residues 554-696, with C660S, C661S and C687S (human) (UniProt P35499); assay: NMR titration; 15N-labeled VSD-II titrated with unlabeled Hm-3 in buffer B with DPC/LDAO micelles (11/11 mM), pH 5.5, 45°C, 800 MHz; chemical shifts fitted with two sites on VSD-II and Hm-3 partitioning to micelles (K M = 90 μM)
[2] = target: single A140C mutant of the VSD of KVAP channel; assay: SEC; Superdex 200 in 20-mM Tris-HCl, 150-mM NaCl, pH 5.5, 0.3% DPC, calibrated by Stokes radii; with SDS-PAGE; VSD-KVAP A140C also after 1.5-mM DTT

| Substance | KD (K V), cytoplasmic binding site [1] [µM] | KD (K V), extracellular binding site [1] [µM] | stoichiometry N [2] |
| --- | --- | --- | --- |
| gating modifier toxin Hm-3 from the crab spider Heriaeus melloteei (peptide) | 7 | 11 | – |
| single A140C mutant of the VSD of KVAP channel (domain or fragment) | – | – | 2 |
